Reference: patent publication US20140086924A1 (UNIVERSITY OF MASSACHUSETTS, published 2014)
Ends that are not written are not given here. * marks the point of attachment. Biotin = O=C1N[C@H]2[C@H](CS[C@H]2CCCCC(=O)*)N1

Tests used:
[1] = target: T1, full length Hsp90alpha (human, UniProt P07900 1-732); experiment: competition ELISA: peptide (20 µg/ml) preincubated with Hsp90, then added to immobilized full length Survivin (the competitor)
T1 construct: also called r-Hsp90; rHsp90
Procedure: (§1) ELISA experiments were performed by immobilizing recombinant Survivin (r-Survivin) ([…]) or recombinant Hsp90 (r-Hsp90) (10 μg/ml) on plastic microtiter wells (Immulon™-2, Dynatech Laboratories, Chantilly, Va.) using bicarbonate buffer, pH 9.5 (100 μl/well) for 18 hours at 4° C. Bound protein was blocked with 3% gelatin for 1 hour at 37° C., rinsed with washing buffer (TBS pH 7.4, 0.1% Tween™, 0.1% BSA) and incubated for 1 hour at 37° C. with different concentrations of a test protein to determine if the test protein bound the immobilized protein.
ELISA experiments were performed essentially as in Example 2 with the following variations. 20 μg/ml of each recombinant Survivin peptide (expressed in E. coli) was preincubated with Hsp90 at 2.5 mg/ml for 16 hours at 4° C. After binding and blocking of full length Survivin to wells in a microtiter plate, the preincubated mixtures of Hsp90 and Survivin peptides were added to the wells and incubated for 1 hour at 37° C. Wells were washed, incubated with primary antibody, washed again, and bound antibody was quantified as described above. Each experiment was repeated three times and the standard deviation is shown. The twelve amino acid Survivin peptide including Lysine 79-Lysine 90 (K79-K90; SEQ ID NO:3) was an especially effective inhibitor of Hsp90-Survivin binding interactions.

[2] = target: T1, full length Hsp90alpha; experiment: ELISA, peptide immobilized, recombinant Hsp90 added, detection with anti-Hsp90 (n=2); no blank bar on the sheet
Procedure: Indicated synthetic peptides from the Survivin core sequence Lys 79-Leu 87 (SEQ ID NO:24) were synthesized carrying single alanine substitutions at each indicated position (alanine scanning mutagenesis). Individual peptides were immobilized at indicated increasing concentrations on plastic microtiter plates, incubated with recombinant Hsp90, and binding to the various substrates was determined with an antibody to Hsp90 by ELISA and quantified by absorbance at OD₄₀₅. […] In contrast, no differences were observed between the wild type peptide sequence and alanine substitutions of the residues flanking this sequence, Lys 79, Ala 85, Phe 86, and Leu 87.

[3] = target: T2, GST-C-Hsp90 (amino acids 629-732 of SEQ ID NO:21) (human, UniProt A5A6K9 630-733 (Pan troglodytes entry)); experiment: ELISA, peptide immobilized at rising concentrations, Hsp90 C-terminal fragment added, detection with anti-Hsp90
T2 construct: not shown: glutathione S-transferase (GST) frame of vector pGex-4T3
T2 sequence (A5A6K9 630-733): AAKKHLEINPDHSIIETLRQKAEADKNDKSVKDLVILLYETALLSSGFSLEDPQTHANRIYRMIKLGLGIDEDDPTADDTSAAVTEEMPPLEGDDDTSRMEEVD
Procedure: as §1
(§2) FIGS. 24A and 24B identify the location of P31 peptide's binding site as the N-terminus domain of Hsp90. The generation of recombinant Hsp90 fragments of the N-terminus or C-terminus is described in Example 3. ELISA experiments were performed as described in Example 2, except the indicated increasing concentrations of the P31 peptide (squares; SEQ ID NO:19) or control P33 peptide (circles; SEQ ID NO:25) were immobilized on plastic microtiter plates and incubated with the indicated Hsp90 N-terminal and C-terminal fragments. After washing, binding of the individual Hsp90 fragments to the immobilized peptides was detected with an antibody to Hsp90. Antibody to the C-terminal and N-terminal fragments of Hsp90 were obtained from BD/Transduction Laboratories and Santa Cruz Biotechnology, Inc. (Santa Cruz, Calif.), respectively.

[4] = target: T3, GST-N-Hsp90 (amino acids 1-272 of SEQ ID NO:21) (human, UniProt O02705 1-273 (pig entry)); experiment: ELISA, peptide immobilized at rising concentrations, Hsp90 N-terminal fragment added, detection with anti-Hsp90
T3 construct: also called N-terminal domain of Hsp90; Hsp90 N-terminal fragment; not shown: glutathione S-transferase (GST) frame of vector pGex-4T3
Procedure: as §1, §2

[5] = target: T1, full length Hsp90alpha; experiment: competition ELISA, peptide inhibits the binding of recombinant survivin to Hsp90
[6] = target: T4, GST-Hsp90 (amino acids 1-732) (human, UniProt P07900 1-732); experiment: pull-down of 35S in vitro translated XIAP BIR2 with GST-Hsp90, autoradiography
T4 construct: also called Sepharose-GST-Hsp90; GST fusion of full length Hsp90; not shown: glutathione S-transferase (GST) frame of vector pGex-4T3
From the text: (§3) The cDNAs for XIAP and XIAP Baculovirus IAP Repeats (BIR) domains (BIR1, Met 1 to Ser 123; BIR2, Arg 124 to Pro 260; and BIR3, Ser 261 to Gln 336) were obtained from retro-transcription (SuperScript™ First Strand Synthesis System for RT-PCR, Invitrogen) of RNA extracted from HeLa cells (TRI Reagent™, Molecular Research Center Inc.), amplified by PCR, and cloned in pcDNA3 vector (Invitrogen). pcDNA3-XIAP and pcDNA3-XIAP BIR domains were translated in vitro using the TNT™ Quick Coupled Transcription/Translation System (Promega) in the presence of ³⁵S labeled methionine (Amersham), and 2, 5, and 8 μl of the reaction were incubated with 10 μg GST or GST fusion proteins as described above.
(§4) pcDNA3-XIAP and pcDNA3-XIAP BIR domains were translated in vitro as described in Example 4. […] GST-Hsp90 or GST was mixed with ³⁵S in vitro translated XIAP or its individual Baculovirus IAP Repeats: BIR1, BIR2, and BIR3. Reactions were centrifuged and proteins that associated with the pellet were detected by autoradiography.

[7] = target: T4, GST-Hsp90 (amino acids 1-732); experiment: pull-down of 35S in vitro translated XIAP BIR3 with GST-Hsp90, autoradiography
From the text: as §3, §4

[8] = target: T1, full length Hsp90alpha; experiment: surface plasmon resonance, biotin peptide on streptavidin chip, r-Hsp90 injected
Procedure: Wild type Survivin peptide 77 to 91 (SEQ ID NO:22) or the corresponding C84A mutant 77-91 peptide ([…]; SEQ ID NO:23) was synthesized with an N-terminal biotin and immobilized on streptavidin coated chips (SA5) purchased from Biacore Inc. (Piscataway, N.J.). Increasing concentrations (100 nM-10 μM) of purified r-Hsp90 suspended in 10 mM HEPES, 150 mM NaCl, 3 mM EDTA, 0.005% polysorbate-20, 1 mM DTT, were then injected in […] over the immobilized peptides. A constant flow rate of […] was maintained, and the dissociation phase was followed for 300 seconds. Surfaces were regenerated using […] of 1 M NaCl/50 mM NaOH after each dissociation phase. A new injection cycle was initiated only after 10 min post-regeneration to ensure complete removal of NaCl and NaOH. The collected data were analyzed using the Biaeval 3.0 software package from Biacore Inc.
Sensorgrams (FIG. 10B) indicate binding of the Survivin peptides to Hsp90, measured by an increase in surface plasmon resonance during analyte flow over the chip surface, with the nonspecific signal from the biotin-only surface subtracted.

[9] = target: T5, Hsp 27 (UniProt P04792 1-205); experiment: affinity chromatography of Raji cell extracts on immobilized peptide, Western blot
T5 construct: Endogenous protein of Raji cells
T5 sequence (P04792 whole entry): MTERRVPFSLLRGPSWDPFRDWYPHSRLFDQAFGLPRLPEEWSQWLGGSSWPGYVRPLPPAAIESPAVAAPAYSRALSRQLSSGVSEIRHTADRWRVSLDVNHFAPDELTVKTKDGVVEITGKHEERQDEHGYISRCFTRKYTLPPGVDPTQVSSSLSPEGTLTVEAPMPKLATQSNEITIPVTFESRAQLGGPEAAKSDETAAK
From the text: A Survivin Ile⁷⁴-Leu⁸⁷ peptide (SEQ ID NO:4) containing a binding site for Hsp90 was immobilized onto a Sulfolink™ Coupling Gel (Pierce, Rockport, Ill.), and used to fractionate Raji cell extracts. Proteins were identified in the flow trough (FT) or eluate (E) by Western blotting with the indicated antibodies. Hsp90 and Hsp70 clearly bound the Survivin peptide including residues Ile⁷⁴-Leu⁸⁷. The anti-Hsp70 antibodies were obtained from Abcam, Cambridge, Mass. (cat. No. ab6535).

B1: Survivin peptide Lysine 79-Lysine 90 (peptide)
peptide: KHSSGCAFLSVK
notes: Called both synthetic and recombinant (expressed in E. coli) in the same paragraph; also called K79-K90
binding result [1]: binds

B2: Survivin core sequence peptide Lys 79-Leu 87 (peptide)
peptide: KHSSGCAFL
notes: Synthetic, immobilized on plastic microtiter plates; also called Survivin peptide (K79-L87)
binding result [2]: binds

KHSSGCAFA (also called L87A) [Survivin Lys 79-Leu 87 peptide with alanine substitution of Leu 87]
binding result [2]: binds

AHSSGCAFL (also called K79A) [Survivin Lys 79-Leu 87 peptide with alanine substitution of Lys 79]
binding result [2]: binds

KHSSGCAAL (also called F86A) [Survivin Lys 79-Leu 87 peptide with alanine substitution of Phe 86]
binding result [2]: binds

B3: P31 survivin peptide (Antennapedia carrier sequence fused to Survivin K79-L87) (peptide)
peptide: Biotin-RQIKIWFQNRRMKWKKKHSSGCAFL
notes: also called Survivin cell permeable peptide
binding result [3]: no binding (tested: 0.25 mg/ml) | binding result [4]: binds | binding result [5]: binds

RQIKIWFQNRRMKWKKKHSSG [shorter cell permeable Survivin peptide (Antennapedia carrier sequence fused to Survivin K79-G83)]
binding result [5]: binds

B4: XIAP BIR2 fragment (Arg 124 to Pro 260) (other, human, UniProt P98170 124-260, looked up)
chain: RDHFALDRPSETHADYLLRTGQVVDISDTIYPRNPAMYSEEARLKSFQNWPDYAHLTPRELASAGLYYTGIGDQVQCFCCGGKLKNWEPCDRAWSEHRRHFPNCFFVLGRNLNIRSESDAVSSDRNFPNSTNLPRNP
notes: range 124-260; 35S-labelled, in vitro translated
binding result [6]: no binding

B5: XIAP BIR3 fragment (Ser 261 to Gln 336) (other, human, UniProt P98170 261-336, looked up)
chain: SMADYEARIFTFGTWIYSVNKEQLARAGFYALGEGDKVKCFHCGGGLTDWKPSEDPWEQHAKWYPGCKYLLEQKGQ
notes: range 261-336; 35S-labelled, in vitro translated
binding result [7]: no binding

B6: wild type Survivin peptide 77 to 91 (peptide)
peptide: Biotin-HKKHSSGCAFLSVKK
notes: Immobilized on streptavidin coated Biacore chips; also called wild type peptide
Kd [8]: 83.8 nM | off-rate, fold slower than the C84A peptide (SEQ ID NO:23) [8]: 10 fold

B7: C84A mutant Survivin 77-91 peptide (peptide)
peptide: Biotin-HKKHSSGAAFLSVKK
notes: Immobilized on streptavidin coated Biacore chips; also called C84A peptide
binding result [8]: binds

B8: Survivin Ile74-Leu87 peptide (peptide)
peptide: IDDHKKHSSGCAFL
notes: Immobilized on Sulfolink Coupling Gel; also called Survivin peptide (Ile74-Leu87)
binding result [9]: no binding
